According to PMC4820727:

Assays:
Experiment in all cases: flow cytometry on cells; Adh adhesion to 293T cells displaying the candidate protein from pDisplay; adhesion rate compared with the control group
[1] = target: CARD displayed on the surface of 293T cells (pDisplay) (pig (protein identified from porcine alveolar macrophages; source of the cDNA not stated))
[2] = target: OR5M11 displayed on the surface of 293T cells (pDisplay) (pig (protein identified from porcine alveolar macrophages; source of the cDNA not stated))
[3] = target: RAB14 displayed on the surface of 293T cells (pDisplay) (pig (protein identified from porcine alveolar macrophages; source of the cDNA not stated)) (UniProt Q52NJ6)
Sequence of UniProt Q52NJ6 (Q52NJ6 whole entry): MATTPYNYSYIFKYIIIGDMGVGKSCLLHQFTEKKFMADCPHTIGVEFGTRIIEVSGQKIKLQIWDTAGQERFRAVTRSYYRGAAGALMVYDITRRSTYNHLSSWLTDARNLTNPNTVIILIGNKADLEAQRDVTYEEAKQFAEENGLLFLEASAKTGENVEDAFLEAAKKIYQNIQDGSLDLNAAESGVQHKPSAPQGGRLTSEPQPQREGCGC

[4] = target: RAB1B displayed on the surface of 293T cells (pDisplay) (pig (protein identified from porcine alveolar macrophages; source of the cDNA not stated)) (UniProt Q06AU7)
Sequence of UniProt Q06AU7 (Q06AU7 whole entry): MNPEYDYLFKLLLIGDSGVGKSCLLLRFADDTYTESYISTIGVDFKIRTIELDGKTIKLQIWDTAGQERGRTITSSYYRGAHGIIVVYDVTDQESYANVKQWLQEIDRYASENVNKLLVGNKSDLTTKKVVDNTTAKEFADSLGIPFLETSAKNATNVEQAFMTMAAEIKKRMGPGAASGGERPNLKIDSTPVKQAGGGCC

Measured: fold increase of the adhesion rate over the control group

Adh, the 68-612 aa head domain of the trimeric autotransporter adhesin Apa1 of Actinobacillus pleuropneumoniae (domain or fragment)
> 3 fold: all assays above
